Experimental data taken from patent US20260183393A1, “IMMUNOSUPPRESSANT-RESISTANT MODIFIED ALLOGENEIC MODIFIED IMMUNE CELLS AND METHODS FOR USE THEREOF” (Beam Therapeutics Inc., priority 2023, published 2026).
Entries after “also recorded” stand apart in the source; their conditions may differ.

Experiments:
19CAR-T cells = assay: CAR-T cell proliferation assay; type: cell-based, human; details: 100 nM rapamycin
Source text: Primary human T cells were activated using an anti-CD3/CD28/CD2 reagent. Two-days after being contacted with the reagent, the T cells were edited using a base editor system containing the guide polynucleotide TSBT×1538 and the base editor ABE8.20m using electroporation, as described above. Following electroporation, both the T cells were transduced with a lentiviral vector encoding an anti-CD19 CAR (19CAR) and allowed to expand in culture for approximately 7 days before being cryopreserved for later analysis. Unedited anti-CD19 CAR-T cells were prepared as a negative control. The 19CAR-T cells were then thawed from cryopreservation and rested overnight before being stimulated using dynabeads coated with recombinant human CD19 protein-coated at a bead-to-cell ratio of 1:1. The T cells were cultured in the presence of 100 nM of the immunosuppressant rapamycin or dimethylsulfoxide (DMSO) as a control for 6 days. The total number of T cells were enumerated using a NucleoCounter NC-200™ automated cell counter.
Primary human T cells were activated using an anti-CD3/CD28/CD2 reagent. Two days after being contacted with the reagent, the T cells were edited using a base editor system containing the guide polynucleotide TSBT×1538 and the base editor ABE8.20m using the electroporation protocol described above. Both edited and unedited T cells were transduced with a lentiviral vector encoding an anti-CD19 CAR (19CAR) and allowed to expand in culture for approximately 7 days before being cryopreserved for later analysis. Unedited 19CAR-T cells were used as a control. For analysis, the 19CAR-T cells were thawed and rested for 72 hours before labeling using a CellTrace™ Far Red (CTFR) dye. After CTFR labeling, the 19CAR-T cells were stimulated using an Immunocult™ Human CD3/CD28/CD2 universal T cell activator in the presence of 100 nM of the immunosuppressant agent rapamycin or in the presence of DMSO (control) and allowed to incubate for an additional 3 days. Following the three-day incubation, the T cells were analyzed using flow cytometry to measure dilution of CTFR dye as an indicator of cell proliferation.
The following day, T cells were washed, counted and 1×10^4 cells were seeded in triplicate into a 96-well flat bottom plate alone or with 1×10^4 JeKo-1.GFP^+ tumor cells. […] On day 7, samples were analyzed by flow cytometry and 19CAR-T cells were enumerated using CountBright Counting Beads (Thermo Fisher Scientific) following the manufacturer's protocol.

FKBP1A polynucleotide = assay: Base editing of FKBP1A in primary human T cells, next-generation sequencing; type: cell-based; details: ABE8.20m mRNA and sgRNA electroporated into activated primary human T cells; NGS
Source text: FIG. 3 provides a bar graph showing maximum A to G and C to T base editing within an FKBP1A polynucleotide achieved using base editor systems containing one of the guide polynucleotides indicated along the x-axis (see Table 1 for nucleotide sequences) and either an adenosine deaminase base editor (ABE) or a cytidine deaminase base editor (CBE), as indicated. The ABE was ABE8.20m and the CBE was rBE4. Primary human T cells were thawed and activated in vitro using an anti-CD3/CD28/CD2 reagent. On day 2 following contacting with the reagent, the T cells were washed and resuspended in P3 Buffer (Lonza) and plated in 96-well electroporation plates containing 2 μg ABE8.20m or rBE4 (CBE) and 2 μg of the indicated guide polynucleotide targeting the FKBP1A (FKBP prolyl isomerase 1A) polynucleotide. Plates were electroporated using a DH-102 setting on a Lonza Nucleofector™ 96-well plate unit. The electroporated cells were incubated for 3 days. […]
Healthy donor adult human leukopaks were commercially obtained from HemaCare (Charles River). […] Two-days post-activation, T cells were counted, washed with sterile PBS (Gibco) and resuspended in P3 buffer (Lonza) at 10^7 cells mL^−1. […]

FKBP1A protein = assay: Western blot of FKBP1A protein in edited T cells; type: cell-based, human; details: T cells edited with ABE8.20m and TSBT×1538 sgRNA
Experimental: Primary human T cells were activated with anti-CD3/CD28/CD2 reagent. On day 2 following contacting with the reagent, the T cells were contacted with the TSBT×1538 sgRNA and ABE8.20m and subsequently incubated for approximately 5 days. Unedited cells were used as a negative control. Following the approximately 5-day incubation, the cells were harvested and cell-associated protein was extracted to be evaluated in the Western blot analysis. Protein samples from the edited and unedited cells were contacted with a rabbit anti-FKBP1A or mouse anti-GAPDH (control used to normalize protein concentrations) antibodies, followed by staining with secondary anti-rabbit (HRP) and anti-mouse (NIR) antibodies, respectively. Protein was analyzed using the Jess automated Western blot analysis device available from ProteinSimple.

B1: TSBT×1538: guide polynucleotide targeting FKBP1A, SEQ ID NO: 501 (nucleic acid)
guide: CTCACCGTCTCCTGGGGAGAGTTTTAGAGCTAGAAATAGCAAGTTAAAATAAGGCTAGTCCGTTATCAACTTGAAAAAGTGGCACCGAGTCGGTGCTTTT
modifications: chemistry not given here
cell proliferation in response to a universal T cell activator (19CAR-T cells; 19CAR-T cells edited with ABE8.20m and the guide, 3 days, CTFR dilution): improved cell proliferation
proliferation in the presence of rapamycin (19CAR-T cells; anti-CD19 CAR-T cells edited with ABE8.20m and the guide, CD19-coated dynabeads 1:1, 6 days): improved proliferation
mean on-target genomic editing efficiency (FKBP1A polynucleotide): 93.7%
FKBP1A protein expression (FKBP1A protein): knock-out of FKBP1A protein expression; also recorded: reduced protein expression
